# Experimental data: publication PMC10450195
# Legend:
# [1] = test system: LANA peptide (Kaposi's Sarcoma Herpesvirus); experiment: fluorescence polarization; conditions: FP: 20 mM HEPES pH 7.5, 150 mM NaCl, 0.5 mM EDTA, 1 mM DTT, 0.05% Triton X-100, 20 C, 50 nM peptide, EMSA: 15 mM HEPES pH 7.5, 150 mM NaCl
# [2] = molecular target: Homo sapiens nucleosome core particle (human) (UniProt P68431); experiment: fluorescence polarisation
Substance,Kd [1],Kd [2]
H. sapiens NCP,2380 nM,–
"Kaposi's Sarcoma Herpesvirus Latency Associated Nuclear Antigen (LANA) peptide, aa. 4-23",–,2380 nM
